Measured values from patent US20150344570A1 (published 2015).

T1: FcγRIIb extracellular domain with C-terminal His tag (human, UniProt P31994 43-217)
T1 construct: extracellular domain; Soluble receptor expressed in FreeStyle293 cells and used as analyte in Biacore; also called FcgRIIb; 2b; not shown: His tag attached to the C terminus
T1 sequence (looked up): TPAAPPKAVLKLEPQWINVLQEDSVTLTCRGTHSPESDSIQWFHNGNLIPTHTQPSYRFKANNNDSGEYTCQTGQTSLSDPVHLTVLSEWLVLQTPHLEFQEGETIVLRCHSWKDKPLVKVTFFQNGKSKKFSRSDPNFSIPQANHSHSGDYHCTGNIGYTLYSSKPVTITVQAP


Legend:
[1] = molecular target: T2, FcγRIIIa extracellular domain with C-terminal His tag (human, UniProt P08637 17-208); assay: SPR (Biacore); He/Con_3a divided by He/Con_2b (FcγRIIIa over FcγRIIb)
T2 construct: extracellular domain; also called FcgRIIIa; 3a; not shown: His tag attached to the C terminus
Description: (§1) The heterodimerized antibodies He Abs in which one of the H chains was introduced with an alteration were assayed for their binding activities to each activating FcγR and inhibitory FcγR according to the method described in Example 4. […] The activating FcγRs in FIGS. 26, 27, 28, and 29 are FcγRIa, FcγRIIa (R), FcγRIIa (H), and FcγRIIIa, respectively.
(§2) Analysis of interaction between objective antibody and the FcγR was carried out using Biacore T100 (GE Healthcare). HBS-EP+ (GE Healthcare) was used as the running buffer, and the measurement temperature was set to 25° C. Chips produced by immobilizing the antigen peptide by the amine coupling method to a Series S Sencor Chip CM5 (GE Healthcare), or alternatively, chips produced by allowing preliminarily biotinylated antigen peptides to interact with and immobilize onto a Series S Sensor Chip SA (certified) (GE Healthcare) were used. Antibodies of interest were captured onto an antigen peptide-immobilized chip, and allowed to interact to each FcγR diluted with running buffer. To regenerate and repeatedly use the chip, the antibodies captured on the chip were washed off by reacting 10 mM glycine-HCl, pH 1.5.

[2] = molecular target: T2, FcγRIIIa extracellular domain with …; assay: SPR (Biacore), antibody captured, FcγR as analyte; binding activity relative to control heterodimerized antibody
Description: as §1, §2

[3] = molecular target: T1, FcγRIIb extracellular domain with …; assay: as above
Description: as §1, §2

T2 sequence (P08637 17-208): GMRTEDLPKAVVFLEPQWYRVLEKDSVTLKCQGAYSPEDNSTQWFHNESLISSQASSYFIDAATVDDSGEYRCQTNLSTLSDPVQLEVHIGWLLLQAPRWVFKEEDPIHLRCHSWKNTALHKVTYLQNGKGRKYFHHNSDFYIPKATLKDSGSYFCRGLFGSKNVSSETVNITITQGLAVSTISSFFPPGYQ

Row | He_3a/2b [1] [ratio] | He/Con_3a [2] | He/Con_2b [3] | Binder
1 | 2.47 | 44 % of GpH7-A5/GpH7-B3/GpL16-k0 (=100) | 17.8 % of GpH7-A5/GpH7-B3/GpL16-k0 (=100) | GpH7-A5/GpH7-B3 variant E269_11K/GpL16-k0 (antibody, human IgG1, kappa, Heterodimerized anti-glypican-3 IgG1 with the alteration in only one H chain; also called He Ab) heavy 1: not shown heavy 2: not shown light: DIVMTQSPLSLPVTPGEPASISCQASESLVHSNRNTYLHWYLQKPGQSPQLLIYKVSNRFSGVPDRFSGSGSGTDFTLKISRVEAEDVGVYYCSQNTHVPPTFGQGTKVEIERTVAAPSVFIFPPSDEQLKSGTASVVCLLNNFYPREAKVQWKVDNALQSGNSQESVTEQDSKDSTYSLSSTLTLSKADYEKHKVYACEVTHQGLSSPVTKSFNRGEC
2 | 1.27 | 55.8 % of GpH7-A5/GpH7-B3/GpL16-k0 (=100) | 43.9 % of GpH7-A5/GpH7-B3/GpL16-k0 (=100) | GpH7-A5/GpH7-B3 variant E269_07I/GpL16-k0 (antibody, human IgG1, kappa, Heterodimerized anti-glypican-3 IgG1 with the alteration in only one H chain; also called He Ab) heavy 1: not shown heavy 2: not shown light: DIVMTQSPLSLPVTPGEPASISCQASESLVHSNRNTYLHWYLQKPGQSPQLLIYKVSNRFSGVPDRFSGSGSGTDFTLKISRVEAEDVGVYYCSQNTHVPPTFGQGTKVEIERTVAAPSVFIFPPSDEQLKSGTASVVCLLNNFYPREAKVQWKVDNALQSGNSQESVTEQDSKDSTYSLSSTLTLSKADYEKHKVYACEVTHQGLSSPVTKSFNRGEC
3 | 1.25 | 58.5 % of GpH7-A5/GpH7-B3/GpL16-k0 (=100) | 46.7 % of GpH7-A5/GpH7-B3/GpL16-k0 (=100) | GpH7-A5/GpH7-B3 variant E269_06M/GpL16-k0 (antibody, human IgG1, kappa, Heterodimerized anti-glypican-3 IgG1 with the alteration in only one H chain; also called He Ab) heavy 1: not shown heavy 2: not shown light: DIVMTQSPLSLPVTPGEPASISCQASESLVHSNRNTYLHWYLQKPGQSPQLLIYKVSNRFSGVPDRFSGSGSGTDFTLKISRVEAEDVGVYYCSQNTHVPPTFGQGTKVEIERTVAAPSVFIFPPSDEQLKSGTASVVCLLNNFYPREAKVQWKVDNALQSGNSQESVTEQDSKDSTYSLSSTLTLSKADYEKHKVYACEVTHQGLSSPVTKSFNRGEC
4 | 1.4 | 56.5 % of GpH7-A5/GpH7-B3/GpL16-k0 (=100) | 40.3 % of GpH7-A5/GpH7-B3/GpL16-k0 (=100) | GpH7-A5/GpH7-B3 variant D270_18N/GpL16-k0 (antibody, human IgG1, kappa, Heterodimerized anti-glypican-3 IgG1 with the alteration in only one H chain; also called He Ab) heavy 1: not shown heavy 2: not shown light: DIVMTQSPLSLPVTPGEPASISCQASESLVHSNRNTYLHWYLQKPGQSPQLLIYKVSNRFSGVPDRFSGSGSGTDFTLKISRVEAEDVGVYYCSQNTHVPPTFGQGTKVEIERTVAAPSVFIFPPSDEQLKSGTASVVCLLNNFYPREAKVQWKVDNALQSGNSQESVTEQDSKDSTYSLSSTLTLSKADYEKHKVYACEVTHQGLSSPVTKSFNRGEC

Continued, binder first:

Row | Binder | He_3a/2b [1] [ratio] | He/Con_3a [2] | He/Con_2b [3]
5 | GpH7-A5/GpH7-B3 variant D270_08L/GpL16-k0 (antibody, human IgG1, kappa, Heterodimerized anti-glypican-3 IgG1 with the alteration in only one H chain; also called He Ab) heavy 1: not shown heavy 2: not shown light: DIVMTQSPLSLPVTPGEPASISCQASESLVHSNRNTYLHWYLQKPGQSPQLLIYKVSNRFSGVPDRFSGSGSGTDFTLKISRVEAEDVGVYYCSQNTHVPPTFGQGTKVEIERTVAAPSVFIFPPSDEQLKSGTASVVCLLNNFYPREAKVQWKVDNALQSGNSQESVTEQDSKDSTYSLSSTLTLSKADYEKHKVYACEVTHQGLSSPVTKSFNRGEC | 1.34 | 71.8 % of GpH7-A5/GpH7-B3/GpL16-k0 (=100) | 53.6 % of GpH7-A5/GpH7-B3/GpL16-k0 (=100)
6 | GpH7-A5/GpH7-B3 variant D270_15Y/GpL16-k0 (antibody, human IgG1, kappa, Heterodimerized anti-glypican-3 IgG1 with the alteration in only one H chain; also called He Ab) heavy 1: not shown heavy 2: not shown light: DIVMTQSPLSLPVTPGEPASISCQASESLVHSNRNTYLHWYLQKPGQSPQLLIYKVSNRFSGVPDRFSGSGSGTDFTLKISRVEAEDVGVYYCSQNTHVPPTFGQGTKVEIERTVAAPSVFIFPPSDEQLKSGTASVVCLLNNFYPREAKVQWKVDNALQSGNSQESVTEQDSKDSTYSLSSTLTLSKADYEKHKVYACEVTHQGLSSPVTKSFNRGEC | 1.22 | 54.5 % of GpH7-A5/GpH7-B3/GpL16-k0 (=100) | 44.9 % of GpH7-A5/GpH7-B3/GpL16-k0 (=100)
7 | GpH7-A5/GpH7-B3 variant D270_03V/GpL16-k0 (antibody, human IgG1, kappa, Heterodimerized anti-glypican-3 IgG1 with the alteration in only one H chain; also called He Ab) heavy 1: not shown heavy 2: not shown light: DIVMTQSPLSLPVTPGEPASISCQASESLVHSNRNTYLHWYLQKPGQSPQLLIYKVSNRFSGVPDRFSGSGSGTDFTLKISRVEAEDVGVYYCSQNTHVPPTFGQGTKVEIERTVAAPSVFIFPPSDEQLKSGTASVVCLLNNFYPREAKVQWKVDNALQSGNSQESVTEQDSKDSTYSLSSTLTLSKADYEKHKVYACEVTHQGLSSPVTKSFNRGEC | 1.52 | 60.3 % of GpH7-A5/GpH7-B3/GpL16-k0 (=100) | 39.5 % of GpH7-A5/GpH7-B3/GpL16-k0 (=100)
8 | GpH7-A5/GpH7-B3 variant D270_12R/GpL16-k0 (antibody, human IgG1, kappa, Heterodimerized anti-glypican-3 IgG1 with the alteration in only one H chain; also called He Ab) heavy 1: not shown heavy 2: not shown light: DIVMTQSPLSLPVTPGEPASISCQASESLVHSNRNTYLHWYLQKPGQSPQLLIYKVSNRFSGVPDRFSGSGSGTDFTLKISRVEAEDVGVYYCSQNTHVPPTFGQGTKVEIERTVAAPSVFIFPPSDEQLKSGTASVVCLLNNFYPREAKVQWKVDNALQSGNSQESVTEQDSKDSTYSLSSTLTLSKADYEKHKVYACEVTHQGLSSPVTKSFNRGEC | 1.58 | 28.8 % of GpH7-A5/GpH7-B3/GpL16-k0 (=100) | 18.3 % of GpH7-A5/GpH7-B3/GpL16-k0 (=100)
9 | GpH7-A5/GpH7-B3 variant D270_06M/GpL16-k0 (antibody, human IgG1, kappa, Heterodimerized anti-glypican-3 IgG1 with the alteration in only one H chain; also called He Ab) heavy 1: not shown heavy 2: not shown light: DIVMTQSPLSLPVTPGEPASISCQASESLVHSNRNTYLHWYLQKPGQSPQLLIYKVSNRFSGVPDRFSGSGSGTDFTLKISRVEAEDVGVYYCSQNTHVPPTFGQGTKVEIERTVAAPSVFIFPPSDEQLKSGTASVVCLLNNFYPREAKVQWKVDNALQSGNSQESVTEQDSKDSTYSLSSTLTLSKADYEKHKVYACEVTHQGLSSPVTKSFNRGEC | 1.38 | 66.3 % of GpH7-A5/GpH7-B3/GpL16-k0 (=100) | 48.2 % of GpH7-A5/GpH7-B3/GpL16-k0 (=100)
